From PMC12329521
Read-outs that look alike come from different tables or passages of the source.

Tests used:
Assay in all cases: SEC
[1] = target: PLP-bound Rv2531c (Mycobacterium tuberculosis)
[2] = target: Rv2531c (apo) (Mycobacterium tuberculosis)
[3] = target: Rv2531c (apo) (Mycobacterium tuberculosis); remark: listed apart in the source

Substance	stoichiometry N [1]	stoichiometry N [2]	stoichiometry N [3]
PLP-bound Rv2531c (enzyme)	2		
Rv2531c (apo) (enzyme)		4	4
